Measurements: PMC3985704

Target: T1, unmodified Dictyostelium Skp1A (Dictyostelium discoideum), P52285
T1 chain: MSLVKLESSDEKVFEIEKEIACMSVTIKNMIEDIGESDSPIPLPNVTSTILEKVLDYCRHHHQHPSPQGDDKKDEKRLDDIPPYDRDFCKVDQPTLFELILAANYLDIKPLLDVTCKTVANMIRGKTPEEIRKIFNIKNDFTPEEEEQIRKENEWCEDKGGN
Experiment: SAXS
Settings: remark: other sources report otherwise

B1: unmodified Dictyostelium Skp1A, P52285 1-162 (natural protein)
chain: MSLVKLESSDEKVFEIEKEIACMSVTIKNMIEDIGESDSPIPLPNVTSTILEKVLDYCRHHHQHPSPQGDDKKDEKRLDDIPPYDRDFCKVDQPTLFELILAANYLDIKPLLDVTCKTVANMIRGKTPEEIRKIFNIKNDFTPEEEEQIRKENEWCEDKGGN
B1 showed a stoichiometry N of 2.
